± gives the uncertainty stated by the source.

The data set is described as follows: self-splicing fitness, log relative to wild type (ln ratio); higher = more splicing; Tetrahymena group I intron in knt gene, E. coli kanamycin selection, DiMSum; sequences stand for … in CUCUCU…GGAGGGAAAAGUUAUCAGGCAUGCACCUGGUAGCUAGUCUUUAAACCAAUAGAUUGCAUCGGUUUAAAAGGCAAGACCGUCAAAUUGCGGGAAAGGGGUCAACAGCCGUUCAGUACCAAGUCUCAGGGGAAACUUUGAGAUGGCCUUGCAAAGGGUAUGGUAAUAAGCUGACGGACAUGGUCCUAACCACGCAGCCAAGUCCUAAGUCAACAGAUCUUCUGUUGAUAUGGAUGCAGUUCACAGACUAAAUGUCGGUCGGGGAAGAUGUAUUCUUCUCAUAAGAUAUAGUCGGACCUCUCCUUAAUGGGAGCUAGCGGAUGAAGUGAUGCAACACUGGAGCCGCUGGGAACUAAUUUGUAUGCGAAAGUAUAUUGAUUAGUUUUGGAGUACUCGUGGUCG
The gist of the method:
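Library with all eight P1ex-region intron nucleotides randomised, intron inside the knt kanamycin-resistance gene on pET-22b(+), in E. coli BL21(DE3). Cells grew overnight at 37°C or 30°C on LB agar with or without 25 μg/mL kanamycin (plus 100 μg/mL carbenicillin, 50 μM IPTG, 0.2% rhamnose), in six replicate transformations. Pooled colonies were amplicon-sequenced on Illumina HiSeq 2500. DiMSum fitness is the error-weighted combination of wild-type-normalised replicate fold changes, kanamycin versus none.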

Consider AACGAGCAAUAUUACGUUGU, for which the “self-splicing fitness (ln)” value runs as follows: (30 °C) -3.8 ± 0.098; (37 °C) -3.3 ± 0.13.
AACUAGCAAUAUUACGAAGA: the “self-splicing fitness (ln)” value (30 °C) was -2.62 ± 0.14 and the “self-splicing fitness (ln)” value (37 °C) is -1.05 ± 0.12.
The corresponding values for AACUAGCAAUAUUACGAAUA are -2.71 ± 0.2 and -1.6 ± 0.13.
As for AACUAGCAAUAUUACGACAC, the “self-splicing fitness (ln)” value is -1.04 ± 0.085 (30 °C) and -0.404 ± 0.11 (37 °C).
Consider AACUAGCAAUAUUACGACUG, for which the “self-splicing fitness (ln)” value reads like this: (30 °C) -0.606 ± 0.1; (37 °C) -0.989 ± 0.13.
As for AACUAGCAAUAUUACGAGUC, the “self-splicing fitness (ln)” value reads like this: (30 °C) -3.83 ± 0.33; (37 °C) -1.77 ± 0.19.
Take AACUAGCAAUAUUACGAGUG: the “self-splicing fitness (ln)” value is -0.165 ± 0.059 (30 °C) and -0.29 ± 0.074 (37 °C).
Take AACUAGCAAUAUUACGAGUU: the “self-splicing fitness (ln)” value by setting is: (30 °C) -3.44 ± 0.24; (37 °C) -1.89 ± 0.22.
Turning to AACUAGCAAUAUUACGAUCA, the “self-splicing fitness (ln)” value (30 °C) was -0.213 ± 0.099 and the “self-splicing fitness (ln)” value (37 °C) was -0.0939 ± 0.11.
In the case of AACUAGCAAUAUUACGCACG, the “self-splicing fitness (ln)” value (30 °C) was -0.871 ± 0.098 and the “self-splicing fitness (ln)” value (37 °C) was -0.361 ± 0.12.
For AACUAGCAAUAUUACGCAUA, in that order: -1.64 ± 0.15 and -1.1 ± 0.14.
AACUAGCAAUAUUACGCGAC: the “self-splicing fitness (ln)” value (30 °C) is -2.49 ± 0.27.
As for AACUAGCAAUAUUACGCUAG, the “self-splicing fitness (ln)” value reads like this: (30 °C) -4.12 ± 0.23; (37 °C) -2.81 ± 0.22.
Turning to AACUAGCAAUAUUACGCUCU, the “self-splicing fitness (ln)” value is -0.509 ± 0.12 (30 °C) and 0.627 ± 0.11 (37 °C).
As to AACUAGCAAUAUUACGCUGC, the “self-splicing fitness (ln)” value is -2.59 ± 0.14 (30 °C) and -2.29 ± 0.18 (37 °C).
Regarding AACUAGCAAUAUUACGGAAU, the “self-splicing fitness (ln)” value was -2.42 ± 0.1 (30 °C) and -1.83 ± 0.14 (37 °C).
Take AACUAGCAAUAUUACGGACC: the “self-splicing fitness (ln)” value was -0.676 ± 0.071 (30 °C) and -0.0449 ± 0.11 (37 °C).
The corresponding values for AACUAGCAAUAUUACGGCGA are -0.842 ± 0.1 and -0.155 ± 0.13.
The corresponding values for AACUAGCAAUAUUACGGCUC are -0.662 ± 0.1 and -0.155 ± 0.11.
Turning to AACUAGCAAUAUUACGGGGA, the “self-splicing fitness (ln)” value reads like this: (30 °C) -1.3 ± 0.12; (37 °C) -0.982 ± 0.13.
As for AACUAGCAAUAUUACGGGUC, the “self-splicing fitness (ln)” value was -1.88 ± 0.24 (30 °C) and -1.78 ± 0.22 (37 °C).
In the case of AACUAGCAAUAUUACGUCAC, where the note is “30 °C”, the “self-splicing fitness (ln)” value was -2.87 ± 0.18.
Take AACUAGCAAUAUUACGUCGA: the “self-splicing fitness (ln)” value was -0.769 ± 0.087 (30 °C) and -0.975 ± 0.09 (37 °C).
On to AACUAGCAAUAUUACGUGAA, for which the “self-splicing fitness (ln)” value (30 °C) was -1.86 ± 0.081 and the “self-splicing fitness (ln)” value (37 °C) was -1.51 ± 0.11.
For AACUAGCAAUAUUACGUUUC, the “self-splicing fitness (ln)” value was -3.35 ± 0.18 (30 °C) and -2.58 ± 0.25 (37 °C).
Regarding AAGAAGCAAUAUUACGAAGA, the “self-splicing fitness (ln)” value (30 °C) is -3.29 ± 0.19 and the “self-splicing fitness (ln)” value (37 °C) is -2.15 ± 0.19.
As for AAGAAGCAAUAUUACGAAGU, the “self-splicing fitness (ln)” value runs as follows: (30 °C) -2.48 ± 0.16; (37 °C) -2.12 ± 0.21.
On to AAGAAGCAAUAUUACGAGGU, for which the “self-splicing fitness (ln)” value (30 °C) was -3.38 ± 0.33 and the “self-splicing fitness (ln)” value (37 °C) is -2.42 ± 0.42.
As to AAGAAGCAAUAUUACGAUCG, the “self-splicing fitness (ln)” value reads like this: (30 °C) -1.23 ± 0.12; (37 °C) -0.674 ± 0.14.
The corresponding values for AAGAAGCAAUAUUACGCAAG are -2.01 ± 0.13 and -1.15 ± 0.13.
As to AAGAAGCAAUAUUACGCCAC, the “self-splicing fitness (ln)” value (37 °C) was -2.7 ± 0.48.
As for AAGAAGCAAUAUUACGCGUC, the “self-splicing fitness (ln)” value was -2.48 ± 0.27 (30 °C) and -1.21 ± 0.3 (37 °C).
Regarding AAGAAGCAAUAUUACGCUAC, the “self-splicing fitness (ln)” value runs as follows: (30 °C) -2.18 ± 0.24; (37 °C) -1.93 ± 0.44.
The corresponding values for AAGAAGCAAUAUUACGGACG are -0.677 ± 0.071 and 0.0583 ± 0.11.
Turning to AAGAAGCAAUAUUACGGCGC, the “self-splicing fitness (ln)” value (30 °C) is -0.183 ± 0.19 and the “self-splicing fitness (ln)” value (37 °C) is -0.28 ± 0.25.
Take AAGAAGCAAUAUUACGGGAG: the “self-splicing fitness (ln)” value by setting is: (30 °C) -2.62 ± 0.12; (37 °C) -1.47 ± 0.11.
For AAGAAGCAAUAUUACGUAGU, in that order: -2.52 ± 0.16 and -1.14 ± 0.15.
AAGAAGCAAUAUUACGUAUC: the “self-splicing fitness (ln)” value is -2.31 ± 0.16 (30 °C) and -0.892 ± 0.18 (37 °C).
Consider AAGAAGCAAUAUUACGUCCA, for which the “self-splicing fitness (ln)” value is -0.641 ± 0.13 (30 °C) and 0.0432 ± 0.14 (37 °C).
The corresponding values for AAGAAGCAAUAUUACGUCGC are -3.47 ± 0.19 and -2.2 ± 0.16.
Regarding AAGAAGCAAUAUUACGUGAG, the “self-splicing fitness (ln)” value is, setting by setting: (30 °C) -1.35 ± 0.046; (37 °C) -0.828 ± 0.075.
With AAGAAGCAAUAUUACGUGUC, the “self-splicing fitness (ln)” value is -3.38 ± 0.15 (30 °C) and -2.09 ± 0.17 (37 °C).
As for AAGAAGCAAUAUUACGUGUU, the “self-splicing fitness (ln)” value was -2.15 ± 0.13 (30 °C) and -1.61 ± 0.13 (37 °C).
On to AAGAAGCAAUAUUACGUUGC, for which the “self-splicing fitness (ln)” value is -4.64 ± 0.31 (30 °C) and -3.65 ± 0.32 (37 °C).
Regarding AAGAAGCAAUAUUACGUUUU, the “self-splicing fitness (ln)” value by setting is: (30 °C) -3.3 ± 0.11; (37 °C) -1.33 ± 0.091.
On to AAGCAGCAAUAUUACGAACC, for which the “self-splicing fitness (ln)” value is -2.26 ± 0.14 (30 °C) and -0.526 ± 0.15 (37 °C).
For AAGCAGCAAUAUUACGACGG, in that order: -2.19 ± 0.088 and -1.17 ± 0.09.
Regarding AAGCAGCAAUAUUACGACUG, the “self-splicing fitness (ln)” value (30 °C) is -2.67 ± 0.12 and the “self-splicing fitness (ln)” value (37 °C) is -1.8 ± 0.14.
Regarding AAGCAGCAAUAUUACGAUCC, the “self-splicing fitness (ln)” value was -1.73 ± 0.24 (30 °C) and 0.0481 ± 0.24 (37 °C).
On to AAGCAGCAAUAUUACGCACU, for which the “self-splicing fitness (ln)” value is, setting by setting: (30 °C) 0.0285 ± 0.094; (37 °C) 0.781 ± 0.12.
The corresponding values for AAGCAGCAAUAUUACGCAGG are -2.34 ± 0.14 and -1.13 ± 0.11.
For the sequence AAGCAGCAAUAUUACGCCAU, the “self-splicing fitness (ln)” value by setting is: (30 °C) -2.13 ± 0.19; (37 °C) -1.69 ± 0.28.
AAGCAGCAAUAUUACGCCCG: the “self-splicing fitness (ln)” value is, setting by setting: (30 °C) -0.844 ± 0.21; (37 °C) 1.38 ± 0.32.
As to AAGCAGCAAUAUUACGCCUA, the “self-splicing fitness (ln)” value reads like this: (30 °C) 0.0257 ± 0.11; (37 °C) -0.183 ± 0.13.
For AAGCAGCAAUAUUACGCUAC, the “self-splicing fitness (ln)” value (30 °C) is -2.96 ± 0.24 and the “self-splicing fitness (ln)” value (37 °C) is -2.31 ± 0.24.
Take AAGCAGCAAUAUUACGCUAU: the “self-splicing fitness (ln)” value is -2.17 ± 0.14 (30 °C) and -0.814 ± 0.13 (37 °C).
AAGCAGCAAUAUUACGCUCU: the “self-splicing fitness (ln)” value was -1.55 ± 0.098 (30 °C) and -0.549 ± 0.11 (37 °C).
The corresponding values for AAGCAGCAAUAUUACGCUGA are -3.07 ± 0.11 and -1.98 ± 0.11.
As to AAGCAGCAAUAUUACGCUUA, the “self-splicing fitness (ln)” value is, setting by setting: (30 °C) -1.9 ± 0.15; (37 °C) -1.24 ± 0.14.
The corresponding values for AAGCAGCAAUAUUACGCUUU are -4.53 ± 0.2 and -2.87 ± 0.22.
For AAGCAGCAAUAUUACGGAUC, in that order: -1.81 ± 0.093 and -1 ± 0.1.
For AAGCAGCAAUAUUACGGAUU, the “self-splicing fitness (ln)” value is, setting by setting: (30 °C) -0.723 ± 0.055; (37 °C) -0.000157 ± 0.077.
AAGCAGCAAUAUUACGGUUC: the “self-splicing fitness (ln)” value (30 °C) was -2.24 ± 0.097 and the “self-splicing fitness (ln)” value (37 °C) is -2.02 ± 0.12.
For AAGCAGCAAUAUUACGUAAG, in that order: -1.49 ± 0.074 and -1.02 ± 0.088.
The corresponding values for AAGCAGCAAUAUUACGUCAG are -3.06 ± 0.2 and -2.43 ± 0.23.
Consider AAGCAGCAAUAUUACGUGAC, for which the “self-splicing fitness (ln)” value by setting is: (30 °C) -3.33 ± 0.14; (37 °C) -2.38 ± 0.18.
As for AAGCAGCAAUAUUACGUGGA, the “self-splicing fitness (ln)” value is, setting by setting: (30 °C) -3.63 ± 0.21; (37 °C) -1.44 ± 0.11.
The corresponding values for AAGCAGCAAUAUUACGUGUG are -2.67 ± 0.083 and -1.92 ± 0.11.
As for AAGGAGCAAUAUUACGAACU, the “self-splicing fitness (ln)” value was -1.63 ± 0.15 (30 °C) and 0.581 ± 0.21 (37 °C).
Turning to AAGGAGCAAUAUUACGAGUC, the “self-splicing fitness (ln)” value (30 °C) is -3.2 ± 0.47 and the “self-splicing fitness (ln)” value (37 °C) is -2.05 ± 0.23.
With AAGGAGCAAUAUUACGAUUU, the “self-splicing fitness (ln)” value is -0.545 ± 0.12 (30 °C) and 0.0878 ± 0.15 (37 °C).
For AAGGAGCAAUAUUACGCCAA, in that order: -4.19 ± 0.46 and -3.11 ± 0.3.
Turning to AAGGAGCAAUAUUACGCGUA, the “self-splicing fitness (ln)” value reads like this: (30 °C) -3.11 ± 0.28; (37 °C) -1.29 ± 0.17.
On to AAGGAGCAAUAUUACGCUCU, for which the “self-splicing fitness (ln)” value was -3.15 ± 0.18 (30 °C) and -3.85 ± 0.42 (37 °C).
Turning to AAGGAGCAAUAUUACGCUUC, for the setting “37 °C”, the “self-splicing fitness (ln)” value is -1.88 ± 0.39.
With AAGGAGCAAUAUUACGGACC, the “self-splicing fitness (ln)” value by setting is: (30 °C) -2.55 ± 0.17; (37 °C) -2.97 ± 0.33.

The values are drawn from the supplement of paper PMC7877785.
